Data on two substances can be found in US20100210509A1, “LONG ACTING HYALURONIC ACID - PEPTIDE CONJUGATE” (Postech Academy-Industry Foundation, priority 2007, published 2010).

Where no end group is shown, it is not given here. [ ]: non-standard residue; d: D form.

Series [1] addresses T1, FPRL1 receptor (Homo sapiens, UniProt P25090).
T1 construct: expressed in transfected cells; host or cells: RBL-2H3 (rat basophilic leukemia) cells over-expressing FPRL1, kept under G418 selection
T1 sequence (P25090 1-351): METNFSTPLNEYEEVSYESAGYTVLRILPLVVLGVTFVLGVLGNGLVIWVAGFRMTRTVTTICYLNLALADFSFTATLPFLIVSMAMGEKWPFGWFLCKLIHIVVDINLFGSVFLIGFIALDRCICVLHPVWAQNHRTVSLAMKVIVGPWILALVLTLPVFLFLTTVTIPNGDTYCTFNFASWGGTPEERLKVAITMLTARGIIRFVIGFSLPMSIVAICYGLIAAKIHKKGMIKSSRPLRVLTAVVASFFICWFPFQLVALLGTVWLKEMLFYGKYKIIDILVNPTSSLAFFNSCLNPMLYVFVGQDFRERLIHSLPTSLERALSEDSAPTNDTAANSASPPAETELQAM
The series can be described thus: Co-treatment with antagonistic peptide, pERK Western blot in RBL-2H3/FPRL1 cells. It counts as cell-based. The conditions noted are these: RBL-2H3/FPRL1 cells stimulated 5 min with CWRYMVm or HA-CWRYMVm conjugates (5, 8, 23). As to the method:
In order to investigate the effect of co-treatment with antagonistic peptide (C—WRWWWW (SEQ ID NO: 6), WRW4 (SEQ ID NO: 2) on the binding characteristics of the conjugates of peptide with HA-AEMA to FPRL1 receptor, the RBL-2H3/FPRL1 cells were stimulated with a control (no treatment), peptide (CWRYMVm, SEQ ID NO: 5), and three kinds of conjugate samples for 5 minutes in the presence and absence of C-WRWWWW (SEQ ID NO: 6), ([…], competitor for FPRL1 binding). The other procedures including electrophoresis and immunoblot analysis for Western blot was repeated in the same way as described above.
On the technique in general: Immunoblotting shows a protein as a band on a membrane.

Series [2] concerns the target T1, FPRL1 receptor. The series can be described thus: pERK level by Western blot in FPRL1 over-expressing RBL-2H3 cells after stimulation. It counts as cell-based. Here is the method: In order to investigate the effect of HA conjugation on the signal transduction activity of peptide, three kinds of samples were prepared, the raw peptide, conjugate of peptide with HA-AMEA, and conjugate of peptide with HA-AEMA after hyaluronidase treatment. In the conjugate samples, the number of peptide molecules per single HA derivative chain was 5, 8, and 23, respectively. Each sample of conjugate of peptide with HA-AEMA (0.4 mL, 1 mg/mL) was divided into two aliquots. One aliquot was mixed with 0.2 mL of hyaluronidase solution (400 units/mL) and the other was mixed with 0.2 mL of water. Then, the solutions were incubated at 37° C. overnight for the complete enzymatic degradation of HA. Three replicates were carried out for the following bioactivity tests measuring the intracellular level of pERK and calcium ion. […]
The prepared cells were aliquoted into 1×10^6 cells and stimulated with a control (no treatment), peptide (CWRYMVm, SEQ ID NO: 5), HA-AEMA, the mixture of peptide and HA-AEMA, and three kind of conjugate samples with and without hyaluronidase treatment. […] Protein concentrations in the lysates were determined by Bradford protein assay. […]
The data are expressed as means±S.D. from several separate experiments. […]

Series [3] is described as follows: Dissolution of peptide in serum. Format: physicochemical. Particulars: fetal bovine serum. As to the method: In order to investigate the effect of HA conjugation on the serum stability of peptide, raw peptide and three kinds of conjugate samples were dissolved in 0.5 mL of water and mixed with 0.5 mL of fetal bovine serum (FBS), respectively. In conjugates of peptide with HA derivative, the number of peptide molecules per single HA chain was 5, 19, and 33, respectively. […] Then, the solutions were incubated at 37° C. for 96 hours. The remaining amount of peptide was measured by GPC analysis after incubation for 12, 24, 48, 72, and 96 hours. Three replicates were carried out.

For “Trp-Arg-Trp-Trp-Trp-Trp (WRWWWW; also: conjugated with hyaluronic acid derivative) [FPRL1 antagonist peptide]”, the “intracellular level of pERK on co-treatment with antagonistic peptide” value in the series with FPRL1 receptor [1] is recorded as “did not increase at all”.
As to “Cys-Trp-Arg-Tyr-Met-Val-DMet (CWRYMV[dM]; also: conjugated with hyaluronic acid derivative) [CWRYMVm, Agonistic peptide for FPRL1 receptor; WRYMVm modified with cysteine]”, the “pERK level normalized to peptide alone (100%)” value in the series with FPRL1 receptor [2] (RBL-2H3/FPRL1 cells, 5 min stimulation, same peptide amount, without hyaluronidase treatment) is listed as 100%. Besides, in the series with FPRL1 receptor [2] (stimulation up to 30 min, Western blot), the “stimulation time of highest elevation of intracellular pERK level” value is on record as 5 min. The dissolution in serum result in series [3] was “not dissolved in serum completely”.
